Results from paper PMC9723635.
Blank lines part the entries; values can stand above or below the substance they belong to.

Legend:
[1] = tested on: RBPMS-A WT; assay: UV crosslinking; conditions: 4 uM protein, EMSA: 50 mM HEPES pH 7.2-7.9, 15 mM MgCl2, 25% glycerol, 5 mM DTT, 45 mM KCl, 5 ug tRNA, 20 fmol RNA, 25 min at 30 C, then 5 ug heparin 5 min at 30 C
[2] = target: truncated RBPMS-A T/E (amino acids 1-122, T113E and T118E), the sample used for NMR (UniProt Q93062); assay: SEC-MALS; 50 μl at ~2 mg/ml on Superdex 75 10/300 GL increase, 10 mM HEPES pH 6.8, 50 mM KCl, 0.5 ml/min; self-association (dimer)
[3] = target: recombinant wild-type RBPMS-A (RNA Binding Protein with Multiple Splicing, canonical isoform A) (UniProt Q93062); assay: AUC; sedimentation velocity, interference data, 40 000 rpm, 20°C, overnight; protein at 0.5 mg/ml in 20 mM HEPES, 500 mM KCl, 1 mM TCEP, pH 7.9; c(s) distributions by SEDFIT; self-association into dimers and higher-order oligomers
[4] = target: recombinant RBPMS-A T/A (double mutant T113A and T118A) (UniProt Q93062); assay: as above
[5] = tested on: RBPMS-A WT; assay: EMSA; conditions: apparent Kd, Hill fit; tRNA and heparin present; EMSA: 50 mM HEPES pH 7.2-7.9, 15 mM MgCl2, 25% glycerol, 5 mM DTT, 45 mM KCl, 5 ug tRNA, 20 fmol RNA, 25 min at 30 C, then 5 ug heparin 5 min at 30 C; 4% …

Substance: Tpm1 UV-crosslinking RNA
binding signal (% (reference)) ([1]; no nuclear extract): 100
binding signal (% (reference)) ([1]; with 20% HeLa nuclear extract): 100

Substance: Tpm1 exon 3 upstream intron EMSA RNA (three tandem CAC motifs)
Kd [5]: 213 nM

Continued, values first:

stoichiometry N [2]: 2
Substance: truncated RBPMS-A T/E (amino acids 1-122, T113E and T118E), the sample used for NMR (from UniProt Q93062 1-122) (domain or fragment)

stoichiometry N [3]: 2
Substance: recombinant wild-type RBPMS-A (RNA Binding Protein with Multiple Splicing, canonical isoform A) (from UniProt Q93062 2-196) (natural protein)

stoichiometry N [4]: 2
Substance: recombinant RBPMS-A T/A (double mutant T113A and T118A) (from UniProt Q93062 2-196) (natural protein)
